Test results taken from the supplement of paper PMC11316812.
± gives the standard deviation of the averaged measurements.

Experiments:
hTERT-HMEC = assay: percentage of EdU-negative (G0-arrested) nuclei per well, 72 h; higher = more G0 arrest; conditions: reference: sequence is the full UniProt precursor, the tested protein was the secreted form or ectodomain
MCF7 = assay: as above; conditions: reference: sequence is the full UniProt precursor, the tested protein was the secreted form or ectodomain
[1] = protein concentration 0.0225 µM
[2] = protein concentration 0.0215 µM
[3] = protein concentration 0.0125 µM
[4] = protein concentration 0.0107825 µM
[5] = protein concentration 0.107825 µM
[6] = protein concentration 0.0257143 µM
[7] = protein concentration 0.257143 µM
[8] = protein concentration 0.0168571 µM
[9] = protein concentration 0.168571 µM
[10] = protein concentration 0.00857143 µM
[11] = protein concentration 0.0857143 µM
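Note: secreted proteins added to cultured cells, EdU pulse at the end, nuclei found by Hoechst imaging, EdU status from nuclear versus surrounding ring intensity ratio, PBS as neutral control.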

Sequence	percentage of EdU-negative (hTERT-HMEC; [1])	percentage of EdU-negative (hTERT-HMEC; protein concentration 0.225 µM)	percentage of EdU-negative (MCF7; [1])	percentage of EdU-negative (MCF7; protein concentration 0.225 µM)	further results
MLPWLLVFSALGIQAWGDSSWNKTQAKQVSEGLQYLFENISQLTEKGLPTDVSTTVSRKAWGAEAVGCSIQLTTPVNVLVIHHVPGLECHDQTVCSQRLRELQAHHVHNNSGCDVAYNFLVGDDGRVYEGVGWNIQGVHTQGYNNISLGFAFFGTKKGHSPSPAALSAMENLITYAVQKGHLSSSYVQPLLGKGENCLAPRQKTSLKKACPGVVPRSVWGARETHCPRMTLPAKYGIIIHTAGRTCNISDECRLLVRDIQSFYIDRLKSCDIGYNFLVGQDGAIYEGVGWNVQGSSTPGYDDIALGITFMGTFTGIPPNAAALEAAQDLIQCAMVKGYLTPNYLLVGHSDVARTLSPGQALYNIISTWPHFKH [Q96LB8]	5.75 ± 0.76%	6.41 ± 1.2%	24.7 ± 0.28%	25 ± 1.5%	
MSSFGYRTLTVALFTLICCPGSDEKVFEVHVRPKKLAVEPKGSLEVNCSTTCNQPEVGGLETSLDKILLDEQAQWKHYLVSNISHDTVLQCHFTCSGKQESMNSNVSVYQPPRQVILTLQPTLVAVGKSFTIECRVPTVEPLDSLTLFLFRGNETLHYETFGKAAPAPQEATATFNSTADREDGHRNFSCLAVLDLMSRGGNIFHKHSAPKMLEIYEPVSDSQMVIIVTVVSVLLSLFVTSVLLCFIFGQHLRQQRMGTYGVRAAWRRLPQAFRP	5.54 ± 0.21%	6.02 ± 0.093%	24.9 ± 0.91%	27.28 ± 0.18%	
MQCLLLLPFLLLGTVSALHLENDAPHLESLETQADLGQDLDSSKEQERDLALTEEVIQAEGEEVKASACQDNFEDEEAMESDPAALDKDFQCPREEDIVEVQGSPRCKICRYLLVRTPKTFAEAQNVCSRCYGGNLVSIHDFNFNYRIQCCTSTVNQAQVWIGGNLRGWFLWKRFCWTDGSHWNFAYWSPGQPGNGQGSCVALCTKGGYWRRAQCDKQLPFVCSF [Q9Y2Y8]					percentage of EdU-negative (hTERT-HMEC; [2]): 5.28 ± 1.6%; percentage of EdU-negative (hTERT-HMEC; protein concentration 0.215 µM): 8.49 ± 1.7%; percentage of EdU-negative (MCF7; [2]): 28.7 ± 1.2%; percentage of EdU-negative (MCF7; protein concentration 0.215 µM): 32.1 ± 2.4%
MRLPGVPLARPALLLLLPLLAPLLGTGAPAELRVRVRLPDGQVTEESLQADSDADSISLELRKPDGTLVSFTADFKKDVKVFRALILGELEKGQSQFQALCFVTQLQHNEIIPSEAMAKLRQKNPRAVRQAEEVRGLEHLHMDVAVNFSQGALLSPHLHNVCAEAVDAIYTRQEDVRFWLEQGVDSSVFEALPKASEQAELPRCRQVGDHGKPCVCRYGLSLAWYPCMLKYCHSRDRPTPYKCGIRSCQKSYSFDFYVPQRQLCLWDEDPYPG [Q86UD1]	4.6 ± 0.4%	14.9 ± 2%	26.92 ± 0.26%	29.75 ± 0.17%	
MVLLLLVAIPLLVHSSRGPAHYEMLGRCRMVCDPHGPRGPGPDGAPASVPPFPPGAKGEVGRRGKAGLRGPPGPPGPRGPPGEPGRPGPPGPPGPGPGGVAPAAGYVPRIAFYAGLRRPHEGYEVLRFDDVVTNVGNAYEAASGKFTCPMPGVYFFAYHVLMRGGDGTSMWADLMKNGQVRASAIAQDADQNYDYASNSVILHLDVGDEVFIKLDGGKVHGGNTNKYSTFSGFIIYPD [Q86Z23]					percentage of EdU-negative (hTERT-HMEC; [3]): 4.79 ± 0.17%; percentage of EdU-negative (hTERT-HMEC; protein concentration 0.125 µM): 6.46 ± 0.13%; percentage of EdU-negative (MCF7; [3]): 23.6 ± 0.38%; percentage of EdU-negative (MCF7; protein concentration 0.125 µM): 27.2 ± 2.1%
MWLLLTLSFLLASTAAQDGDKLLEGDECAPHSQPWQVALYERGRFNCGASLISPHWVLSAAHCQSRFMRVRLGEHNLRKRDGPEQLRTTSRVIPHPRYEARSHRNDIMLLRLVQPARLNPQVRPAVLPTRCPHPGEACVVSGWGLVSHNEPGTAGSPRSQVSLPDTLHCANISIISDTSCDKSYPGRLTNTMVCAGAEGRGAESCEGDSGGPLVCGGILQGIVSWGDVPCDNTTKPGVYTKVCHYLEWIRETMKRN [Q9H2R5]	5.58 ± 0.041%	5.86 ± 1.2%	22.4 ± 2%	25.76 ± 0.13%	
MLGVLELLLLGAAWLAGPARGQNETEPIVLEGKCLVVCDSNPTSDPTGTALGISVRSGSAKVAFSAIRSTNHEPSEMSNRTMIIYFDQVLVNIGNNFDSERSTFIAPRKGIYSFNFHVVKVYNRQTIQVSLMLNGWPVISAFAGDQDVTREAASNGVLIQMEKGDRAYLKLERGNLMGGWKYSTFSGFLVFPL	5.16 ± 0.97%	5.71 ± 0.24%	24.7 ± 1.6%	24.9 ± 2.3%	
MMPKHCFLGFLISFFLTGVAGTQSTHESLKPQRVQFQSRNFHNILQWQPGRALTGNSSVYFVQYKIMFSCSMKSSHQKPSGCWQHISCNFPGCRTLAKYGQRQWKNKEDCWGTQELSCDLTSETSDIQEPYYGRVRAASAGSYSEWSMTPRFTPWWETKIDPPVMNITQVNGSLLVILHAPNLPYRYQKEKNVSIEDYYELLYRVFIINNSLEKEQKVYEGAHRAVEIEALTPHSSYCVVAEIYQPMLDRRSQRSEERCVEIP [Q969J5]	4.89 ± 0.64%	5.48 ± 0.17%	24.1 ± 0.85%	27.2 ± 3%	
MTILFLTMVISYFGCMKAAPMKEANIRGQGGLAYPGVRTHGTLESVNGPKAGSRGLTSLADTFEHVIEELLDEDQKVRPNEENNKDADLYTSRVMLSSQVPLEPPLLFLLEEYKNYLDAANMSMRVRRHSDPARRGELSVCDSISEWVTAADKKTAVDMSGGTVTVLEKVPVSKGQLKQYFYETKCNPMGYTKEGCRGIDKRHWNSQCRTTQSYVRALTMDSKKRIGWRFIRIDTSCVCTLTIKRGR					percentage of EdU-negative (hTERT-HMEC; [4]): 5.167 ± 0.044%; percentage of EdU-negative (hTERT-HMEC; [5]): 7.06 ± 0.31%; percentage of EdU-negative (MCF7; [4]): 26.6 ± 0.45%; percentage of EdU-negative (MCF7; [5]): 28.7 ± 1.2%
MRAPHLHLSAASGARALAKLLPLLMAQLWAAEAALLPQNDTRLDPEAYGSPCARGSQPWQVSLFNGLSFHCAGVLVDQSWVLTAAHCGNKPLWARVGDDHLLLLQGEQLRRTTRSVVHPKYHQGSGPILPRRTDEHDLMLLKLARPVVLGPRVRALQLPYRCAQPGDQCQVAGWGTTAARRVKYNKGLTCSSITILSPKECEVFYPGVVTNNMICAGLDRGQDPCQSDSGGPLVCDETLQGILSWGVYPCGSAQHPAVYTQICKYMSWINKVIRSN	3.89 ± 0.14%	6.32 ± 0.7%	26.7 ± 0.38%	26.9 ± 1.7%	
MYLSICCCFLLWAPALTLKNLNYSVPEEQGAGTVIGNIGRDARLQPGLPPAERGGGGRSKSGSYRVLENSAPHLLDVDADSGLLYTKQRIDRESLCRHNAKCQLSLEVFANDKEICMIKVEIQDINDNAPSFSSDQIEMDISENAAPGTRFPLTSAHDPDAGENGLRTYLLTRDDHGLFGLDVKSRGDGTKFPELVIQKALDREQQNHHTLVLTALDGGEPPRSATVQINVKVIDSNDNSPVFEAPSYLVELPENAPLGTVVIDLNATDADEGPNGEVLYSFSSYVPDRVRELFSIDPKTGLIRVKGNLDYEENGMLEIDVQARDLGPNPIPAHCKVTVKLIDRNDNAPSIGFVSVRQGALSEAAPPGTVIALVRVTDRDSGKNGQLQCRVLGGGGTGGGGGLGGPGGSVPFKLEENYDNFYTVVTDRPLDRETQDEYNVTIVARDGGSPPLNSTKSFAIKILDENDNPPRFTKGLYVLQVHENNIPGEYLGSVLAQDPDLGQNGTVSYSILPSHIGDVSIYTYVSVNPTNGAIYALRSFNFEQTKAFEFKVLAKDSGAPAHLESNATVRVTVLDVNDNAPVIVLPTLQNDTAELQVPRNAGLGYLVSTVRALDSDFGESGRLTYEIVDGNDDHLFEIDPSSGEIRTLHPFWEDVTPVVELVVKVTDHGKPTLSAVAKLIIRSVSGSLPEGVPRVNGEQHHWDMSLPLIVTLSTISIILLAAMITIAVKCKRENKEIRTYNCRIAEYSHPQLGGGKGKKKKINKNDIMLVQSEVEERNAMNVMNVVSSPSLATSPMYFDYQTRLPLSSPRSEVMYLKPASNNLTVPQGHAGCHTSFTGQGTNASETPATRMSIIQTDNFPAEPNYMGSRQQFVQSSSTFKDPERASLRDSGHGDSDQADSDQDTNKGSCCDMSVREALKMKTTSTKSQPLEQEPEECVNCTDECRVLGHSDRCWMPQFPAANQAENADYRTNLFVPTVEANVETETYETVNPTGKKTFCTFGKDKREHTILIANVKPYLKAKRALSPLLQEVPSASSSPTKACIEPCTSTKGSLDGCEAKPGALAEASSQYLPTDSQYLSPSKQPRDPPFMASDQMARVFADVHSRASRDSSEMGAVLEQLDHPNRDLGRESVDAEEVVREIDKLLQDCRGNDPVAVRK					percentage of EdU-negative (hTERT-HMEC; [6]): 4.62 ± 0.4%; percentage of EdU-negative (hTERT-HMEC; [7]): 7.27 ± 0.33%; percentage of EdU-negative (MCF7; [6]): 23.2 ± 3%; percentage of EdU-negative (MCF7; [7]): 26.6 ± 0.28%
MPPFLLLTCLFITGTSVSPVALDPCSAYISLNEPWRNTDHQLDESQGPPLCDNHVNGEWYHFTGMAGDAMPTFCIPENHCGTHAPVWLNGSHPLEGDGIVQRQACASFNGNCCLWNTTVEVKACPGGYYVYRLTKPSVCFHVYCGHFYDICDEDCHGSCSDTSECTCAPGTVLGPDRQTCFDENECEQNNGGCSEICVNLKNSYRCECGVGRVLRSDGKTCEDVEGCHNNNGGCSHSCLGSEKGYQCECPRGLVLSEDNHTCQVPVLCKSNAIEVNIPRELVGGLELFLTNTSCRGVSNGTHVNILFSLKTCGTVVDVVNDKIVASNLVTGLPKQTPGSSGDFIIRTSKLLIPVTCEFPRLYTISEGYVPNLRNSPLEIMSRNHGIFPFTLEIFKDNEFEEPYREALPTLKLRDSLYFGIEPVVHVSGLESLVESCFATPTSKIDEVLKYYLIRDGCVSDDSVKQYTSRDHLAKHFQVPVFKFVGKDHKEVFLHCRVLVCGVLDERSRCAQGCHRRMRRGAGGEDSAGLQGQTLTGGPIRIDWED [Q8WWZ8]					percentage of EdU-negative (hTERT-HMEC; protein concentration 0.007 µM): 5.2 ± 0.59%; percentage of EdU-negative (hTERT-HMEC; protein concentration 0.07 µM): 5.67 ± 1.7%; percentage of EdU-negative (MCF7; protein concentration 0.007 µM): 25.2 ± 1.8%; percentage of EdU-negative (MCF7; protein concentration 0.07 µM): 27.3 ± 1.3%
MLLVLVVLIPVLVSSGGPEGHYEMLGTCRMVCDPYPARGPGAGARTDGGDALSEQSGAPPPSTLVQGPQGKPGRTGKPGPPGPPGDPGPPGPVGPPGEKGEPGKPGPPGLPGAGGSGAISTATYTTVPRVAFYAGLKNPHEGYEVLKFDDVVTNLGNNYDAASGKFTCNIPGTYFFTYHVLMRGGDGTSMWADLCKNGQVRASAIAQDADQNYDYASNSVILHLDAGDEVFIKLDGGKAHGGNSNKYSTFSGFIIYSD					percentage of EdU-negative (hTERT-HMEC; [8]): 4.78 ± 0.083%; percentage of EdU-negative (hTERT-HMEC; [9]): 8.79 ± 0.3%; percentage of EdU-negative (MCF7; [8]): 27 ± 0.61%; percentage of EdU-negative (MCF7; [9]): 28.3 ± 0.59%
MSVPLLKIGVVLSTMAMITNWMSQTLPSLVGLNTTKLSAAGGGTLDRSTGVLPTNPEESWQVYSSAQDSEGRCICTVVAPQQTMCSRDARTKQLRQLLEKVQNMSQSIEVLDRRTQRDLQYVEKMENQMKGLESKFKQVEESHKQHLARQFKAIKAKMDELRPLIPVLEEYKADAKLVLQFKEEVQNLTSVLNELQEEIGAYDYDELQSRVSNLEERLRACMQKLACGKLTGISDPVTVKTSGSRFGSWMTDPLAPEGDNRVWYMDGYHNNRFVREYKSMVDFMNTDNFTSHRLPHPWSGTGQVVYNGSIYFNKFQSHIIIRFDLKTETILKTRSLDYAGYNNMYHYAWGGHSDIDLMVDESGLWAVYATNQNAGNIVVSRLDPVSLQTLQTWNTSYPKRSAGEAFIICGTLYVTNGYSGGTKVHYAYQTNASTYEYIDIPFQNKYSHISMLDYNPKDRALYAWNNGHQILYNVTLFHVIRSDEL					percentage of EdU-negative (hTERT-HMEC; [10]): 4.93 ± 0.14%; percentage of EdU-negative (hTERT-HMEC; [11]): 9.49 ± 1.4%; percentage of EdU-negative (MCF7; [10]): 25.5 ± 3.5%; percentage of EdU-negative (MCF7; [11]): 29.3 ± 2.1%
